From patent US6458552B1, “Metalloprotease peptide substrates and methods” (Ortho-McNeil Pharmaceutical, Inc., priority 2000, dated 2002)

T1: ADAM15 (Homo sapiens, UniProt Q13444)
T1 construct: FLAG (C); made in house; host or cells: Sf9 insect cells (baculovirus, pFastBac1)
T1 sequence (Q13444 213-414 limits assumed): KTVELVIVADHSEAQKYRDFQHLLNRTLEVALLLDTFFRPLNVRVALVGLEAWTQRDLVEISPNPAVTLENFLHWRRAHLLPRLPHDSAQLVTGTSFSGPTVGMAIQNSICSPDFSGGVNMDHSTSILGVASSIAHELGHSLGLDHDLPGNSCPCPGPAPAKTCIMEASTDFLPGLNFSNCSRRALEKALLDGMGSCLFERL

T2: ADAM8 (Homo sapiens, UniProt P78325)
T2 construct: FLAG (C); made in house; host or cells: Sf9 insect cells (baculovirus, pFastBac1)
T2 sequence (P78325 200-400 limits assumed): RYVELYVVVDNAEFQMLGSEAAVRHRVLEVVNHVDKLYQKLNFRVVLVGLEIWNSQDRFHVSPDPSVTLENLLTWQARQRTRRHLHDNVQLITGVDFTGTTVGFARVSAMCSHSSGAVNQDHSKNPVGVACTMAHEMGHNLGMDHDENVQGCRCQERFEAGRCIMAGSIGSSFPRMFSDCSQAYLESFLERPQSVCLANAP

T3: MDC-L (Homo sapiens, UniProt Q9UKQ2)
T3 construct: FLAG (C); made in house; host or cells: Sf9 insect cells (baculovirus, pFastBac1)
T3 sequence (Q9UKQ2 204-399 limits assumed): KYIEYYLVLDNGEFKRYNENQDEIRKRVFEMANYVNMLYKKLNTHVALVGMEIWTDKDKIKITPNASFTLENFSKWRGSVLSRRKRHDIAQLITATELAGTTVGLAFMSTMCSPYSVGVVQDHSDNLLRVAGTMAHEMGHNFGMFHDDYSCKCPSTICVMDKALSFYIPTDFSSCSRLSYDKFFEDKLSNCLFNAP

T4: CatE1 FRET peptide X-KPAKFFRL-Z (not fully specified)
T4 chain: KPAKFFRL


What was measured:
[1] = biological target: T1, ADAM15; assay: FRET peptide substrate screening, ADAM15; assay type: biochemical; set-up: key: from one star (*) to five stars (*****) to indicate weaker to more potent substrates respectively; from one star (*) to five stars (*****) to indicate weaker to more potent substrates respectively; from one star (*) to five stars (*****) to indicate weaker to more potent substrates respectively; from one star (*) to five stars (*****) to indicate weaker to more potent substrates respectively; (—) = no detectable activity; conditions: FRET peptide 20 uM, room temperature
Description: (§1) Forty nine different peptides were synthesized for testing protease activity. The peptides comprised (i) a collection of substrates for other proteases, as well as (ii) a number of sequences corresponding to membrane proximal cleavage sites of various proteins postulated to be released by metalloproteases (including those published by (Roghani et al., 1999) for ADAM9/MDC9). In order to use the principle of fluorescence resonance energy transfer, or FRET, for the assay, the peptides were labelled at the C-terminus with Dabcyl and at the N-terminus with Edans. Thus cleavage of the peptides can be monitored by the increase in Edans fluorescence at 460 nm (excitation 360 nm) as a result of the decrease in proximity of the Dabcyl quencher. The assay was performed by diluting the ADAM8, ADAM15, MDC-L, or ADAM17 (50 to 100 ng of protein, one to two picomoles) in assay buffer, 10 mM HEPES, pH 7.5, containing 0.001% Brij35. The reaction was initiated by the addition of peptide substrate to a final concentration of 20 uM. The assays were typically run for 20 to 60 minutes at room temperature and the slope of the kinetic increase in fluorescence was determined to calculate the rate of the reaction. If necessary, it was possible to stop the reaction at a certain time by the addition of 1/10th volume of 1M NaOAc (sodium acetate), pH 3.5.
(§2) This peptide was cleaved by all enzymes, and thus was chosen to represent a standard by which to compare the relative activity of the various enzymes for their potential to cleave the various peptide substrates.

[2] = biological target: T2, ADAM8; assay: FRET peptide substrate screening, ADAM8; assay type: biochemical; set-up: key: from one star (*) to five stars (*****) to indicate weaker to more potent substrates respectively; from one star (*) to five stars (*****) to indicate weaker to more potent substrates respectively; from one star (*) to five stars (*****) to indicate weaker to more potent substrates respectively; from one star (*) to five stars (*****) to indicate weaker to more potent substrates respectively; (—) = no detectable activity; conditions: FRET peptide 20 uM, room temperature
Description: as §1, §2

[3] = biological target: T3, MDC-L; assay: FRET peptide substrate screening, MDC-L; assay type: biochemical; set-up: key: from one star (*) to five stars (*****) to indicate weaker to more potent substrates respectively; from one star (*) to five stars (*****) to indicate weaker to more potent substrates respectively; from one star (*) to five stars (*****) to indicate weaker to more potent substrates respectively; from one star (*) to five stars (*****) to indicate weaker to more potent substrates respectively; (—) = no detectable activity; conditions: FRET peptide 20 uM, room temperature
Description: as §1, §2

[4] = biological target: T5, ADAM17 (Homo sapiens, UniProt P78536); assay: FRET peptide substrate screening, ADAM17; assay type: biochemical; set-up: key: from one star (*) to five stars (*****) to indicate weaker to more potent substrates respectively; from one star (*) to five stars (*****) to indicate weaker to more potent substrates respectively; from one star (*) to five stars (*****) to indicate weaker to more potent substrates respectively; from one star (*) to five stars (*****) to indicate weaker to more potent substrates respectively; (—) = no detectable activity; conditions: FRET peptide 20 uM, room temperature
T5 construct: made in house
T5 sequence (P78536 215-824, species assumed): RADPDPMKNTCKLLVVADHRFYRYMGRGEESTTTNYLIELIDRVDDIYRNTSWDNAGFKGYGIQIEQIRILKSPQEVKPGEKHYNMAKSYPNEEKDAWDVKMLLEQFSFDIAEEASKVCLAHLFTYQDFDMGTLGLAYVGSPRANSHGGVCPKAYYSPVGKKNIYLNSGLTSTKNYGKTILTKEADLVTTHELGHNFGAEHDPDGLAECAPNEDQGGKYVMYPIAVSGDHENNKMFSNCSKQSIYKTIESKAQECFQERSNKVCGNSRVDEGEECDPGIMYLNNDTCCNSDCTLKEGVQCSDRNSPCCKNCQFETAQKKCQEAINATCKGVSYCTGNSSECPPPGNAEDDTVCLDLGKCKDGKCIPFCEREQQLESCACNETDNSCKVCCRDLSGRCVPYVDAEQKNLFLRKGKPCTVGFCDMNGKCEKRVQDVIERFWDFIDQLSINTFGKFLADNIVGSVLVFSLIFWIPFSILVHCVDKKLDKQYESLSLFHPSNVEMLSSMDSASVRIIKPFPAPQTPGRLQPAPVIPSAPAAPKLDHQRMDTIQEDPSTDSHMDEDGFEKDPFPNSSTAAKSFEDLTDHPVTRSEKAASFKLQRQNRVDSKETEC
Description: as §1, §2

[5] = biological target: T2, ADAM8; assay: Kinetic analysis of the affinity of ADAM8 for cleavage of 4 peptides; assay type: biochemical; conditions: for K0.5 (substrate concentration at which the enzyme activity was 50% of the Vmax): ADAM8, 30 minutes at room temperature, by inspection of the fitted curves; for Cleavage site of ADAM8 within the peptide: carot marks the cleavage site
Experimental: To confirm the screening assay, ADAM8 was further analyzed for its catalytic rate for 4 different peptides. The assay was performed by diluting the ADAM8 in assay buffer, 10 mM HEPES, pH 7.5, containing 0.001% Brij35. […] The assay was run for 30 minutes at room temperature. […] The curves were fitted to the data with the program Grafit (Erithacus Software). […] The Vmax for each substrate was calculated by non-linear fitting of the data. The substrate concentration at which the enzyme activity was 50% of the Vmax (designated “K0.5”) was determined by inspection of the fitted curves. Table 2 also provides the cleavage site of ADAM8 within each peptide, as indicated by a carot within the peptide sequence.

[6] = biological target: T4, CatE1 FRET peptide X-KPAKFFRL-Z

Row | Molecule | Relative proteolytic activity ADAM15 [1] | Relative proteolytic activity ADAM8 [2] | Relative proteolytic activity MDC-L [3] | Relative proteolytic activity ADAM17 [4] | K0.5 (substrate concentration at which the enzyme activity was 50% of the Vmax) [5] [µM] | Cleavage site of ADAM8 within the peptide [5] | fluorometric proteolytic assay / FRET peptide zymography [6]
1 | X-RTAAVFRP-Z ({Edans‑E}-RTAAVFRP-{dabcyl‑K}) [AD8P, FRET peptide substrate; X = Edans-E; Z = dabcyl-K] | * | * | * | ***** | – | – | –
2 | X-KPAKFFRL-Z ({Edans‑E}-KPAKFFRL-{dabcyl‑K}) [CatEl, FRET peptide substrate; X = Edans-E; Z = dabcyl-K] | ***** | ***** | ***** | (—) | 2.5 | XKPAKF^FRLZ | –
3 | X-PLAQAVRSSS-Z ({Edans‑E}-PLAQAVRSSS-{dabcyl‑K}) [TNFα, FRET peptide substrate; X = Edans-E; Z = dabcyl-K] | *** | *** | *** | *** | 5 | XPLAQAVRS^SSZ | –
4 | Z-LAQAVRSSSR-X ({dabcyl‑K}-LAQAVRSSSR-{Edans‑E}) [TNFα(−4 + 6), FRET peptide substrate; X = Edans-E; Z = dabcyl-K] | * | * | * | *** | – | – | –
5 | X-RVRRALPS-Z ({Edans‑E}-RVRRALPS-{dabcyl‑K}) [AD8P2, FRET peptide substrate; X = Edans-E; Z = dabcyl-K] | *** | *** | *** | (—) | – | – | –
6 | X-RFAQAQQQLP-Z ({Edans‑E}-RFAQAQQQLP-{dabcyl‑K}) [CD27L, FRET peptide substrate; X = Edans-E; Z = dabcyl-K] | **** | **** | **** | (—) | 5 | XRFAQA^QQQLPZ | –
7 | X-KPAAFFRL-Z ({Edans‑E}-KPAAFFRL-{dabcyl‑K}) [CatE, FRET peptide substrate; X = Edans-E; Z = dabcyl-K] | ***** | ***** | ***** | (—) | 5 | XKPAAF^FRLZ | –
8 | Z-RGVVNASSRLAK-X ({dabcyl‑K}-RGVVNASSRLAK-{Edans‑E}) [KAS-1, FRET peptide substrate; X = Edans-E; Z = dabcyl-K] | *** | *** | *** | (—) | – | – | –
9 | Z-RPLGLAR-X ({dabcyl‑K}-RPLGLAR-{Edans‑E}) [Mat, FRET peptide substrate; X = Edans-E; Z = dabcyl-K] | *** | *** | *** | *** | – | – | –
10 | soluble recombinant human ADAM8 with pro- and protease domains and C-terminal FLAG epitope (inactive precursor form) (protein) IAPSRPWALMEQYEVVLPWRLPGPRVRRALPSHLGLHPERVSYVLGATGHNFTLHLRKNRDLLGSGYTETYTAANGSEVTEQPRGQDHCFYQGHVEGYPDSAASLSTCAGLRGFFQVGSDLHLIEPLDEGGEGGRHAVYQAEHLLQTAGTCGVSDDSLGSLLGPRTAAVFRPRPGDSLPSRETRYVELYVVVDNAEFQMLGSEAAVRHRVLEVVNHVDKLYQKLNFRVVLVGLEIWNSQDRFHVSPDPSVTLENLLTWQARQRTRRHLHDNVQLITGVDFTGTTVGFARVSAMCSHSSGAVNQDHSKNPVGVACTMAHEMGHNLGMDHDENVQGCRCQERFEAGRCIMAGSIGSSFPRMFSDCSQAYLESFLERPQSVCLANAP | – | – | – | – | – | – | showed no activity in the fluorometric proteolytic assay

Further lines, with some results ahead:

Row | Relative proteolytic activity ADAM15 [1] | Relative proteolytic activity ADAM8 [2] | Relative proteolytic activity MDC-L [3] | Relative proteolytic activity ADAM17 [4] | K0.5 (substrate concentration at which the enzyme activity was 50% of the Vmax) [5] [µM] | Cleavage site of ADAM8 within the peptide [5] | Molecule | fluorometric proteolytic assay / FRET peptide zymography [6]
11 | *** | *** | *** | (—) | – | – | X-PSAAQTARQHP-Z ({Edans‑E}-PSAAQTARQHP-{dabcyl‑K}) [TNFB2, FRET peptide substrate; X = Edans-E; Z = dabcyl-K] | –
12 | *** | *** | *** | (—) | – | – | X-PPVAASSLRN-Z ({Edans‑E}-PPVAASSLRN-{dabcyl‑K}) [KL1, FRET peptide substrate; X = Edans-E; Z = dabcyl-K] | –
